Experimental data published in paper PMC2132824.
“And” between values parts separate entries of the source, which are not always exact repeats. Equal values may be shown once.

Columns and labels:
Assay in all cases: co-sedimentation
[1] = molecular target: F-actin
[2] = molecular target: human platelet nonmuscle F-actin (human) (UniProt P60709)
[3] = molecular target: rabbit skeletal muscle F-actin (rabbit) (UniProt P68135)

stoichiometry N (actin monomers per espin) [1]: 3 and 4 | Kd [2]: 50 nM | Kd [3]: 150 nM
Substance: recombinant full-length small espin (natural protein)
